± gives the uncertainty stated by the source.

The data set can be described thus: amyloid nucleation score (Sup35N fusion, yeast selection) (log enrichment); library NNK2; higher = more nucleation; inactive = no reads after selection. A digest of the protocol: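 Sup35N fusions to peptides of 20 random codons were expressed in psi-negative yeast, induced 24 hours with 100 μM copper sulfate, and grown 7 days at 30°C on medium lacking adenine and uracil. Input and output plasmid inserts were sequenced by Illumina. The nucleation score is the DiMSum log enrichment of output over input reads, centred on the mode score of non-aggregating sequences. Sequences with under 100 input reads were excluded.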
With TGAVKLTSAAIINCTYHARM, the amyloid nucleation score entry was “inactive”.

Substance TGAWLALFLGRHAKWLALFM had an amyloid nucleation score of 0.817 ± 0.26.

As for TGCLLWCLLSMEGRESFQDD, the amyloid nucleation score was -0.504 ± 0.78.

TGCTFCKSMCLYGETSRKDN: the amyloid nucleation score was 0.132 ± 0.36.

For TGDCRT, the amyloid nucleation score is 0.233 ± 0.2.

For TGDSVGLGLLGSWRNEKVCD, the amyloid nucleation score stood at 0.088 ± 0.3.

Turning to TGGTVMRVR, the amyloid nucleation score was determined as 0.297 ± 0.29.

For TGIDHYFWLFFSYLGTLWSK, the amyloid nucleation score entry was “inactive”.

As for TGKLCSSIKWWGT, the amyloid nucleation score came to 1.06 ± 0.39.

Consider TGLVFYSSRFYVTVSMVLKE, for which the amyloid nucleation score result was “inactive”.

On to TGLYFLNSWIIMLRL, for which the amyloid nucleation score came out at 4.434 ± 0.033.

Consider TGQSHFSWQYLRTAAVYSRR, for which the amyloid nucleation score was 0.569 ± 0.27.

TGRWCVVGHRKSS gave an amyloid nucleation score of -0.056 ± 0.34.

TGYFTARNSAEVKRHVNLKR: the amyloid nucleation score was 0.169 ± 0.8.

The substance TGYHNLMGVLGMVAVKHELG yielded an amyloid nucleation score of -0.09 ± 0.25.

The substance THLLIIDIVKYRKHIL yielded an amyloid nucleation score of 0.255 ± 1.1.

Consider THYTDIIFFQEGLY, for which the amyloid nucleation score entry is “inactive”.

For TIALPNFVWPKSSRKVYFS, the amyloid nucleation score is -0.748 ± 0.32.

On to TIGHCTEWAINMSYVFNRGY, for which the amyloid nucleation score is 3.74 ± 0.053.

TIGPNKMRVEAGLEFQKLGK: the amyloid nucleation score was -1.23 ± 0.76.

The substance TIHSSPTVGLGNIWFVTNSH returned an amyloid nucleation score of 6.87 ± 0.052.

TIKLYRNMWEQLVQTEPSRT gave an amyloid nucleation score of 0.045 ± 0.79.

In turn, TINMNIYFIVRVDPSFDNVV returned an amyloid nucleation score of 6.88 ± 0.064.

Turning to TINTAMWTWSITETLPYCTW, the amyloid nucleation score is 4.03 ± 0.06.

In turn, TISIFGM yielded an amyloid nucleation score of -0.325 ± 0.33.

TISWFLETYVRSLFPRVGRG: the amyloid nucleation score was -0.035 ± 0.33.

TISYKELLFANRFRELQPAD showed an amyloid nucleation score of 0.299 ± 0.49.

TITCLFKVRRCVYV returned an amyloid nucleation score of -0.325 ± 0.55.

Substance TITPKSSICNPLRDNSYSVV returned an amyloid nucleation score of 0.136 ± 0.65.

In turn, TIVLGSPANHHTLKCKERGK registered an amyloid nucleation score of 0.197 ± 0.56.

TIYWECYMDILARSGAMWVW came in with an amyloid nucleation score of -1.34 ± 0.49.

Take TKNACMPRGQGRMAPLRCCL: the amyloid nucleation score came out at 0.857 ± 0.51.

TLDGMQMSWFRNGV: the amyloid nucleation score came to 3.93 ± 0.13.

Consider TLDYGIFTVVNSTLWLYRSV, for which the amyloid nucleation score entry was “inactive”.

The substance TLFRKL had an amyloid nucleation score of -0.543 ± 0.44.

TLGTIPIWTEIRPEYNSPLM: the amyloid nucleation score worked out at 0.371 ± 0.51.

TLIIWLTSICVVSGFVLSGE: the amyloid nucleation score stood at 0.137 ± 0.25.

Regarding TLKYSVVNTLMTSMHDF, the amyloid nucleation score was 3.56 ± 0.082.

Turning to TLLDKLK, the amyloid nucleation score result is “inactive”.

Consider TLLSTEMHDYKLLARQRCHP, for which the amyloid nucleation score was found to be 1.24 ± 0.38.

Consider TLLVKSKDYRNANSG, for which the amyloid nucleation score stood at 0.185 ± 0.5.

Consider TLNRTW, for which the amyloid nucleation score came to 0.166 ± 0.16.

TLNYSVEQPYAVIILGCKLA: the amyloid nucleation score turned out to be 3.56 ± 0.083.

Substance TLRVS showed an amyloid nucleation score of -0.207 ± 0.36.

Turning to TLSSYLVALNQRGAGSLWYV, the amyloid nucleation score was found to be 0.825 ± 0.8.

TLVLFGTLISMLQL gave an amyloid nucleation score of 6.24 ± 0.073.

The substance TLWVDRVREMC showed an amyloid nucleation score of -0.809 ± 0.36.

The substance TLYQCEEDMSGYDNVNDLAY came in with an amyloid nucleation score of -0.331 ± 0.27.

Regarding TMDNISSNSFDACSICSYWY, the amyloid nucleation score was found to be 9.385 ± 0.081.

For the substance TMDYRTND, the amyloid nucleation score is 0.443 ± 0.23.

Turning to TMGGSGDGRY, the amyloid nucleation score entry is “inactive”.

Substance TMGYNFRCYVPLMNMLVRGV registered an amyloid nucleation score of -0.614 ± 0.54.

TMILKWESRCERGPGEVRLV came in with an amyloid nucleation score of 6.204 ± 0.052.

The substance TMRHQNASWLGVYINSSRKY registered an amyloid nucleation score of 3.72 ± 0.078.

TMYYRNRGLVSEPKNYNGNE had an amyloid nucleation score of -0.246 ± 0.61.

For TNCSYMMYAAKVSQKYPPFP, the amyloid nucleation score is -0.567 ± 1.1.

For TNIYLGMIVRVHLLFLMELA, the amyloid nucleation score was -0.891 ± 1.1.

In the case of TNLFVSLPQPSVVKSSGSLQ, the amyloid nucleation score is 0.212 ± 0.31.

For the substance TNRNKRWRYLTLFV, the amyloid nucleation score worked out at 0.545 ± 0.37.

Consider TNSGMWGKLSACFYFVMQYL, for which the amyloid nucleation score was -0.936 ± 0.27.

Substance TNSRRCSYSLTPPSGTNRCQ showed an amyloid nucleation score of -0.053 ± 0.54.

With TNSTPPVKLYWIMKLLDRFR, the amyloid nucleation score result was “inactive”.

The substance TNSYANMSGTAGNYRSYNIA registered an amyloid nucleation score of -0.522 ± 0.63.

Consider TNTCFFSNGGRTSKWHPVLV, for which the amyloid nucleation score was found to be 0.135 ± 0.56.

As for TPDAGMWNYECYIVTVW, the amyloid nucleation score was -0.615 ± 0.49.

Regarding TPLYFRYVTIHYRGHVKVDV, the amyloid nucleation score came to 0.688 ± 0.81.

Turning to TPVQDNYSYFIFKPIDESIA, the amyloid nucleation score was found to be 2.19 ± 0.12.

Substance TQPPNCQVYKRDDTCYWCGS returned an amyloid nucleation score of -0.509 ± 0.33.

Turning to TRCGMEAYMSLDMGLYERPM, the amyloid nucleation score is -0.762 ± 0.41.

In turn, TRGPR yielded an amyloid nucleation score of 0.76 ± 0.46.

The substance TRHSGKLLFNILMFRVMSCR registered an amyloid nucleation score of -0.36 ± 0.74.

Substance TRLPEMGLMDLITRSCYNRD had an amyloid nucleation score of -1.35 ± 0.75.

For TRNNLSVERQKVRAMSCEKC, the amyloid nucleation score is -0.038 ± 1.1.

In turn, TRTLRDGVHVGEPLAVYWCC registered an amyloid nucleation score of 9.477 ± 0.028.

For the substance TRTNEVSGNAESKNCRCYIG, the amyloid nucleation score is 0.404 ± 0.29.

TRVDDLIR displayed an amyloid nucleation score of -0.191 ± 0.32.

Regarding TRVLYPACVCHGRSISFGVE, the amyloid nucleation score worked out at 0.134 ± 0.44.

In the case of TSDYYTSNVQDSALRHFFSP, the amyloid nucleation score was -0.081 ± 0.34.

Substance TSGLILL showed an amyloid nucleation score of -0.301 ± 0.37.

With TSGLMMSVCKFDLWQNVND, the amyloid nucleation score turned out to be 3.81 ± 0.09.

For TSGWNAERMFEHINGQFVFL, the amyloid nucleation score is -0.195 ± 0.49.

Regarding TSLFVLVVGLGLCK, the amyloid nucleation score worked out at 2.91 ± 0.19.

TSLGGWVLERRCLPDAADMR: the amyloid nucleation score turned out to be 1.2 ± 0.31.

The substance TSRLNMVTSHVLKWCDNRSR showed an amyloid nucleation score of -0.516 ± 0.5.

The substance TSRPMALQGYSGNSDDVTYV yielded an amyloid nucleation score of 0.445 ± 0.65.

In turn, TSTIYGLTPRFGNMAHSAVV showed an amyloid nucleation score of 0.227 ± 0.65.

For TSVFFQGIALP, the amyloid nucleation score is 8.228 ± 0.029.

In turn, TSVIIIGYCI had an amyloid nucleation score of 5.997 ± 0.034.

TSVNSILRYFRSRAMLKQGS showed an amyloid nucleation score of 1.11 ± 0.45.

Consider TSYIYLMISASPQFLS, for which the amyloid nucleation score was 4.04 ± 0.11.

TSYSTPRMGPLTPRLSSG gave an amyloid nucleation score of 0.388 ± 0.25.

TTHCRLYMYVWWMYVVIFFD gave an amyloid nucleation score of 2.11 ± 0.16.

With TTKPSAILWGSTSKRPRLPR, the amyloid nucleation score worked out at 1.23 ± 0.34.

With TTLMWVWFIGFWP, the amyloid nucleation score stood at 6.139 ± 0.04.

Substance TTLVSSGYKYFCDVFTGVNA displayed an amyloid nucleation score of -1.45 ± 0.63.

In turn, TTPGTDSLMAEII returned an amyloid nucleation score of 1.01 ± 0.49.

For the substance TTRIS, the amyloid nucleation score entry was “inactive”.

As for TTSKISSSKSLEARHTSHLP, the amyloid nucleation score stood at 0.985 ± 0.27.

As for TTTAERSVRPVSCDGFIACG, the amyloid nucleation score stood at 3.56 ± 0.054.

TTVDSNIRAYIFKVARYHYK yielded an amyloid nucleation score of -0.488 ± 1.

With TVAGYCVPSSSCRTGTFTVC, the amyloid nucleation score was -0.567 ± 0.33.

Substance TVFLIDTYTYDTVFNTSRCR yielded an amyloid nucleation score of 3.76 ± 0.041.

The substance TVGHDQASYMGFGSFYTSVF gave an amyloid nucleation score of -0.538 ± 0.76.

TVGNF gave an amyloid nucleation score of 1.25 ± 0.47.

For TVHFLHILIIFRSWSEGMPV, the amyloid nucleation score was -0.345 ± 0.74.

TVIFVCHFTKVDCVSNTQSY gave an amyloid nucleation score of 3.42 ± 0.1.

In the case of TVIRNLVICSFEYCRDMITR, the amyloid nucleation score is 8.195 ± 0.075.

Turning to TVLCTRRLAWRYRLHFFFQ, the amyloid nucleation score amounted to 3.16 ± 0.073.

The substance TVLLMIMMYFIANSFYVACG gave an amyloid nucleation score of 5.89 ± 0.066.

In turn, TVMTFEYSEHVFRDMDT came in with an amyloid nucleation score of -0.501 ± 1.

TVNLVFSTRG showed an amyloid nucleation score of 4.64 ± 0.059.

TVQDMFIFIFYVYNSFGRYM registered an amyloid nucleation score of 3.35 ± 0.052.

Substance TVRMIMLANLIQSYWHTIVS came in with an amyloid nucleation score of -0.153 ± 0.65.

Consider TVSYKWSSMEVITKYKGWSR, for which the amyloid nucleation score was 0.897 ± 0.28.

For TVTSLRSLPIMSMPCRETTD, the amyloid nucleation score stood at 1.1 ± 0.25.

Turning to TVVKDHEYKEWSDWSF, the amyloid nucleation score entry is “inactive”.

As to TVWNHVTGLDKNSRCVTQSS, the amyloid nucleation score came to 0.509 ± 0.81.

In the case of TWESSV, the amyloid nucleation score stood at 0.613 ± 0.2.

TWGGFRY yielded an amyloid nucleation score of 1.76 ± 0.48.

Regarding TWHSIWREYSGTFTHTYWTD, the amyloid nucleation score was 0.555 ± 0.62.

In turn, TWMSYFVHVSVGFLVYYLYI came in with an amyloid nucleation score of -0.919 ± 1.

As for TWTHCIGSLIR, the amyloid nucleation score was -0.855 ± 0.76.

In turn, TYATNSRRNRNVYLRPHCQI yielded an amyloid nucleation score of 0.117 ± 0.3.

Take TYDSYRVIYISY: the amyloid nucleation score was -0.372 ± 0.61.

TYFYSWYGKYPADSRFY showed an amyloid nucleation score of -0.488 ± 1.

Substance TYIRDRHIVYWGHTGSFIYM gave an amyloid nucleation score of 1.63 ± 0.18.

With TYLSVGMNLLVGSPFNYNDL, the amyloid nucleation score result is “inactive”.

TYPMMGQGFC registered an amyloid nucleation score of 0.131 ± 0.55.

Regarding TYPNKADPLFRS, the amyloid nucleation score was 0.008 ± 0.46.

Take TYSFVSLTYDSVTVFALTRC: the amyloid nucleation score was -0.326 ± 0.49.

TYSTSSLYRMEIHLAFSASV displayed an amyloid nucleation score of -0.22 ± 1.

On to TYVLAIGLFWRYPF, for which the amyloid nucleation score worked out at 3.22 ± 0.083.

Consider TYVVKLLIGWDLDAIFTVLS, for which the amyloid nucleation score worked out at 0.499 ± 0.37.

The substance VACCFNSQYSEAI registered an amyloid nucleation score of 3.99 ± 0.076.

Turning to VAFIYCIV, the amyloid nucleation score was determined as 4.99 ± 0.068.

As to VAFKRLGNMSSGTFSWAMLN, the amyloid nucleation score is 0.894 ± 0.74.

The substance VAKAAHFSLVIMYLFK displayed an amyloid nucleation score of 0.01 ± 0.43.

In turn, VASKGCRYYNRLADFLHWSK had an amyloid nucleation score of 0.027 ± 0.74.

(Values after the supplement of paper PMC12042874.)
